Measured values as given in patent US20100317566A1 (MOREHOUSE SCHOOL OF MEDICINE, published 2010).

Key:
Assay in all cases: FLAG-peptide resin pulldown from Jurkat lysate, SDS-PAGE, mass spectrometry
GRP78 = target: T1, GRP78 (UniProt P11021 19-654)
T1 construct: Endogenous protein pulled down from Jurkat cell lysate, identified by mass spectrometry

Mortalin/GRP75 = target: T2, Mortalin/GRP75 (UniProt P38646 47-679)
T2 construct: Endogenous protein pulled down from Jurkat cell lysate, identified by mass spectrometry and by Western blot (~75 kDa); also called glucose-regulated protein 75

HSC70 = target: T3, HSC70 (UniProt P11142 2-646)
T3 construct: Endogenous protein pulled down from Jurkat cell lysate, identified by mass spectrometry

Vimentin = target: T4, Vimentin (UniProt P08670 2-466)
T4 construct: Endogenous protein pulled down from Jurkat cell lysate, identified by mass spectrometry

Measured: binding result

T3 sequence (P11142 2-646 limits assumed): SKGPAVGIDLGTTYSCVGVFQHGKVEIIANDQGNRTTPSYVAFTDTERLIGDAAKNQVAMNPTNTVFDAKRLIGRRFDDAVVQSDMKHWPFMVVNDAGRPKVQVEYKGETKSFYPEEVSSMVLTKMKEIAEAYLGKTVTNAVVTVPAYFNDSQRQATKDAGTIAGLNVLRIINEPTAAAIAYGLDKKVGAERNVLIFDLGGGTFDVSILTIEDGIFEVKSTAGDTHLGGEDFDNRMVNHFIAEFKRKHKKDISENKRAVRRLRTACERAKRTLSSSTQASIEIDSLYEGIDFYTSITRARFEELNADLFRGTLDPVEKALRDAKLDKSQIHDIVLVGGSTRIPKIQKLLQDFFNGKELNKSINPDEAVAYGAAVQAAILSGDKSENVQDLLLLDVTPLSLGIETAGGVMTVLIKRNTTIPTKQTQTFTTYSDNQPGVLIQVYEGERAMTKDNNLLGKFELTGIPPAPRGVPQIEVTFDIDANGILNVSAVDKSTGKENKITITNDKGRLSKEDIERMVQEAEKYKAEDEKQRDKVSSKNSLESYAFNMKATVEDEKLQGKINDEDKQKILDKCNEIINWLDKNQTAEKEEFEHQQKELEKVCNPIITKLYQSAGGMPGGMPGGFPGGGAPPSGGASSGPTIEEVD
T2 sequence (P38646 47-679 limits assumed): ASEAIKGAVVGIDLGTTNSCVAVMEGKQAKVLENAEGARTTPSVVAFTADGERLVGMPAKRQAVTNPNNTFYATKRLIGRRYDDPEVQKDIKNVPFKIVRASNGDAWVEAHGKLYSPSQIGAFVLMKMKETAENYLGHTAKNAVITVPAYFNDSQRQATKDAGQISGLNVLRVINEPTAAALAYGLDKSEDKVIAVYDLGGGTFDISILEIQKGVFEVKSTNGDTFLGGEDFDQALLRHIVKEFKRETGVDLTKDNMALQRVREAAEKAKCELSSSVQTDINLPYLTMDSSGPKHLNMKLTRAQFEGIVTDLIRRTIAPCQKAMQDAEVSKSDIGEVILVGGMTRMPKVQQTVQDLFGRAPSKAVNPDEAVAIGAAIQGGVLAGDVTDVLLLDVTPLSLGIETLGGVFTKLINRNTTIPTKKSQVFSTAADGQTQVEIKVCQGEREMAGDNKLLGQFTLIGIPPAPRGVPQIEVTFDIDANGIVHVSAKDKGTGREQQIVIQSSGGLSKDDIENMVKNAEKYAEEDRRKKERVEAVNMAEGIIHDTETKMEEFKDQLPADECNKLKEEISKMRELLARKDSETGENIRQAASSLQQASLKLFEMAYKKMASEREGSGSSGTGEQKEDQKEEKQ
T4 sequence (P08670 2-466 limits assumed): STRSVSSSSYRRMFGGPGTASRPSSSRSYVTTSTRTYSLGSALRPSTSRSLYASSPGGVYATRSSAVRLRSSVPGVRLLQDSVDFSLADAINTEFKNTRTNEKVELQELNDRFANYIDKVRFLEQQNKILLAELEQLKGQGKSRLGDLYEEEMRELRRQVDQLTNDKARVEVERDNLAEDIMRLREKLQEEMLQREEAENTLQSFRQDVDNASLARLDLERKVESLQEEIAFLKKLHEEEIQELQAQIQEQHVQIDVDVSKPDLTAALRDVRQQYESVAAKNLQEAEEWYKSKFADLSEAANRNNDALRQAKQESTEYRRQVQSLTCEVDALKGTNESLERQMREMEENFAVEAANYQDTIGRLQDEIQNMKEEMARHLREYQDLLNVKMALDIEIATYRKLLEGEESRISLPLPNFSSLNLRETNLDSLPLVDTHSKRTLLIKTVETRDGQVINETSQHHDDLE
T1 sequence (P11021 19-654 limits assumed): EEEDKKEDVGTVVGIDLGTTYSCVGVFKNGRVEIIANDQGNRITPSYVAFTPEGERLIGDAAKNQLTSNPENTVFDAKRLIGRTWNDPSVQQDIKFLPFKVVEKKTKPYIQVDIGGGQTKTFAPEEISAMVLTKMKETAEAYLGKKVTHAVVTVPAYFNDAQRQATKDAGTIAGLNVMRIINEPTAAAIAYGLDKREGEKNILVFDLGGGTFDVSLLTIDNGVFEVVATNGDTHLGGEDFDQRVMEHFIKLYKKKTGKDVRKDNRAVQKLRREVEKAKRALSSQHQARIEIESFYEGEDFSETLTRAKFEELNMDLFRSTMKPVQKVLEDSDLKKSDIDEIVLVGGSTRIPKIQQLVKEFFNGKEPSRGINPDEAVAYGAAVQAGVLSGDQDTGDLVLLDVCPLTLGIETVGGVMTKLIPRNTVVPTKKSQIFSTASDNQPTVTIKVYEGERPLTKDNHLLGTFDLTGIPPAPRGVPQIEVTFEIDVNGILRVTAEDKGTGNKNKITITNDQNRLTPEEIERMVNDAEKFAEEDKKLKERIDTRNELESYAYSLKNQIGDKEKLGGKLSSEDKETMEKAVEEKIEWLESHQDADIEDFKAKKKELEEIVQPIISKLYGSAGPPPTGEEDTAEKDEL

B1: HIV-1 NefSMRmt peptide (H2N-AGFPVAAAGFPVDYKDDDDK-OH) (peptide)
peptide: H-AGFPVAAAGFPVDYKDDDDK-OH
notes: Made commercially; also called SMRmut; HIV-1 NefSMRmut
no binding: all assays above
